T1: CD32A^H (UniProt P12318 34-217, limits assumed)
T1 construct: also called FcγRIIA
T1 sequence (looked up): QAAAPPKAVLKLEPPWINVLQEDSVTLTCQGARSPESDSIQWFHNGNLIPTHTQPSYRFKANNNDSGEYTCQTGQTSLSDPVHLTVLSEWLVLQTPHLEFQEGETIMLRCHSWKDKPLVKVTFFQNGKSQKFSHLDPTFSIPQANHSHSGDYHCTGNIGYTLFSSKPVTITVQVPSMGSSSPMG

T2: CD32B (FcγRII-B) (UniProt P31994 43-217, limits assumed)
T2 sequence (looked up): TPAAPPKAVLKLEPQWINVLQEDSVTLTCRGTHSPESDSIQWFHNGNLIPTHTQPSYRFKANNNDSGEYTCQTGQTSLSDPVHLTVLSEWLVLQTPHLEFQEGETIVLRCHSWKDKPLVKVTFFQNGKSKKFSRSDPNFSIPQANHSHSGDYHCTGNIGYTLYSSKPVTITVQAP


How the values were obtained:
[1] = molecular target: T3, CD16A V158 (human, UniProt P08637 17-208, limits assumed); test: SPR (BIAcore), koff compared with wild-type Fc
T3 construct: construct not described
T3 sequence (P08637 17-208 F176V limits assumed): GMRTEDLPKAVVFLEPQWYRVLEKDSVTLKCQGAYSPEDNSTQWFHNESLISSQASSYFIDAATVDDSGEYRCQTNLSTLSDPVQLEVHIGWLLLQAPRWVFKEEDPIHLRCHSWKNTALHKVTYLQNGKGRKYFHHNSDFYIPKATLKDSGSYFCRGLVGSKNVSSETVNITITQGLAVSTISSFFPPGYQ

[2] = molecular target: T1, CD32A^H; test: SPR (BIAcore), koff compared with wild-type Fc
[3] = molecular target: T2, CD32B (FcγRII-B); test: SPR (BIAcore), koff compared with wild-type Fc
[4] = molecular target: T3, CD16A V158; test: method not stated at Table 3
[5] = molecular target: T4, CD16A F158 (human, UniProt P08637 17-208, limits assumed); test: method not stated at Table 3
T4 construct: construct not described
T4 sequence (P08637 17-208 limits assumed): as the sequence (P08637 17-208 F176V limits assumed) above, with V160F counted along it

[6] = molecular target: T2, CD32B (FcγRII-B); test: method not stated at Table 3

Row | WT koff/mutant koff [1] [ratio] | WT koff/mutant koff [2] [ratio] | WT koff/mutant koff [3] [ratio] | binding relative to wild-type Fc [4] [fold] | binding relative to wild-type Fc [5] [fold] | binding relative to wild-type Fc [6] [fold] | Binder
1 | 6.3 | 1.4 | 0.4 | – | – | – | Fc mutant 14: F243L R292P P396L (other, UniProt P01857-1 104-330, looked up, domain: Fc) DKTHTCPPCPAPELLGGPSVFLLPPKPKDTLMISRTPEVTCVVVDVSHEDPEVKFNWYVDGVEVHNAKTKPPEEQYNSTYRVVSVLTVLHQDWLNGKEYKCKVSNKALPAPIEKTISKAKGQPREPQVYTLPPSRDELTKNQVSLTCLVKGFYPSDIAVEWESNGQPENNYKTTPLVLDSDGSFFLYSKLTVDKSRWQQGNVFSCSVMHEALHNHYTQKSLSLSPGK
2 | – | – | – | 2.18 | 2.49 | 0.78 | Fc variant D270E G316D R416G (other, UniProt P01857-1 104-330, looked up, domain: Fc) DKTHTCPPCPAPELLGGPSVFLFPPKPKDTLMISRTPEVTCVVVDVSHEEPEVKFNWYVDGVEVHNAKTKPREEQYNSTYRVVSVLTVLHQDWLNDKEYKCKVSNKALPAPIEKTISKAKGQPREPQVYTLPPSRDELTKNQVSLTCLVKGFYPSDIAVEWESNGQPENNYKTTPPVLDSDGSFFLYSKLTVDKSGWQQGNVFSCSVMHEALHNHYTQKSLSLSPGK
3 | – | – | – | 1.81 | 2.28 | 0.79 | Fc variant D270E K392T P396L (other, UniProt P01857-1 104-330, looked up, domain: Fc) DKTHTCPPCPAPELLGGPSVFLFPPKPKDTLMISRTPEVTCVVVDVSHEEPEVKFNWYVDGVEVHNAKTKPREEQYNSTYRVVSVLTVLHQDWLNGKEYKCKVSNKALPAPIEKTISKAKGQPREPQVYTLPPSRDELTKNQVSLTCLVKGFYPSDIAVEWESNGQPENNYTTTPLVLDSDGSFFLYSKLTVDKSRWQQGNVFSCSVMHEALHNHYTQKSLSLSPGK
4 | – | – | – | 1.22 | 0.94 | 1.07 | Fc variant D270E P396L G316D R416G (other, UniProt P01857-1 104-330, looked up, domain: Fc; also called D270E G316D P396L R416G) DKTHTCPPCPAPELLGGPSVFLFPPKPKDTLMISRTPEVTCVVVDVSHEEPEVKFNWYVDGVEVHNAKTKPREEQYNSTYRVVSVLTVLHQDWLNDKEYKCKVSNKALPAPIEKTISKAKGQPREPQVYTLPPSRDELTKNQVSLTCLVKGFYPSDIAVEWESNGQPENNYKTTPLVLDSDGSFFLYSKLTVDKSGWQQGNVFSCSVMHEALHNHYTQKSLSLSPGK
5 | – | – | – | 1.64 | – | 0.68 | Fc variant D270E P396L Q419H (other, UniProt P01857-1 104-330, looked up, domain: Fc) DKTHTCPPCPAPELLGGPSVFLFPPKPKDTLMISRTPEVTCVVVDVSHEEPEVKFNWYVDGVEVHNAKTKPREEQYNSTYRVVSVLTVLHQDWLNGKEYKCKVSNKALPAPIEKTISKAKGQPREPQVYTLPPSRDELTKNQVSLTCLVKGFYPSDIAVEWESNGQPENNYKTTPLVLDSDGSFFLYSKLTVDKSRWQHGNVFSCSVMHEALHNHYTQKSLSLSPGK
6 | – | – | – | – | 3.12 | 1.05 | Fc variant F243I R292P Y300L V305I P396L (other, UniProt P01857-1 104-330, looked up, domain: Fc; 'F243I' as printed) DKTHTCPPCPAPELLGGPSVFLIPPKPKDTLMISRTPEVTCVVVDVSHEDPEVKFNWYVDGVEVHNAKTKPPEEQYNSTLRVVSILTVLHQDWLNGKEYKCKVSNKALPAPIEKTISKAKGQPREPQVYTLPPSRDELTKNQVSLTCLVKGFYPSDIAVEWESNGQPENNYKTTPLVLDSDGSFFLYSKLTVDKSRWQQGNVFSCSVMHEALHNHYTQKSLSLSPGK
7 | – | – | – | 1.5 | 1.34 | 0.2 | Fc variant F243L D270E G316D R416G (other, UniProt P01857-1 104-330, looked up, domain: Fc) DKTHTCPPCPAPELLGGPSVFLLPPKPKDTLMISRTPEVTCVVVDVSHEEPEVKFNWYVDGVEVHNAKTKPREEQYNSTYRVVSVLTVLHQDWLNDKEYKCKVSNKALPAPIEKTISKAKGQPREPQVYTLPPSRDELTKNQVSLTCLVKGFYPSDIAVEWESNGQPENNYKTTPPVLDSDGSFFLYSKLTVDKSGWQQGNVFSCSVMHEALHNHYTQKSLSLSPGK
8 | – | – | – | 3.16 | 2.44 | 0.44 | Fc variant F243L D270E K392T P396L (other, UniProt P01857-1 104-330, looked up, domain: Fc) DKTHTCPPCPAPELLGGPSVFLLPPKPKDTLMISRTPEVTCVVVDVSHEEPEVKFNWYVDGVEVHNAKTKPREEQYNSTYRVVSVLTVLHQDWLNGKEYKCKVSNKALPAPIEKTISKAKGQPREPQVYTLPPSRDELTKNQVSLTCLVKGFYPSDIAVEWESNGQPENNYTTTPLVLDSDGSFFLYSKLTVDKSRWQQGNVFSCSVMHEALHNHYTQKSLSLSPGK
9 | – | – | – | 1.46 | 1.15 | 0.26 | Fc variant F243L D270E P396L Q419H (other, UniProt P01857-1 104-330, looked up, domain: Fc) DKTHTCPPCPAPELLGGPSVFLLPPKPKDTLMISRTPEVTCVVVDVSHEEPEVKFNWYVDGVEVHNAKTKPREEQYNSTYRVVSVLTVLHQDWLNGKEYKCKVSNKALPAPIEKTISKAKGQPREPQVYTLPPSRDELTKNQVSLTCLVKGFYPSDIAVEWESNGQPENNYKTTPLVLDSDGSFFLYSKLTVDKSRWQHGNVFSCSVMHEALHNHYTQKSLSLSPGK
10 | – | – | – | 2.3 | 3.45 | 0.32 | Fc variant F243L P247L D270E N421K (other, UniProt P01857-1 104-330, looked up, domain: Fc) DKTHTCPPCPAPELLGGPSVFLLPPKLKDTLMISRTPEVTCVVVDVSHEEPEVKFNWYVDGVEVHNAKTKPREEQYNSTYRVVSVLTVLHQDWLNGKEYKCKVSNKALPAPIEKTISKAKGQPREPQVYTLPPSRDELTKNQVSLTCLVKGFYPSDIAVEWESNGQPENNYKTTPPVLDSDGSFFLYSKLTVDKSRWQQGKVFSCSVMHEALHNHYTQKSLSLSPGK
11 | – | – | – | 1.89 | 1.71 | 0.17 | Fc variant F243L P247L N421K (other, UniProt P01857-1 104-330, looked up, domain: Fc) DKTHTCPPCPAPELLGGPSVFLLPPKLKDTLMISRTPEVTCVVVDVSHEDPEVKFNWYVDGVEVHNAKTKPREEQYNSTYRVVSVLTVLHQDWLNGKEYKCKVSNKALPAPIEKTISKAKGQPREPQVYTLPPSRDELTKNQVSLTCLVKGFYPSDIAVEWESNGQPENNYKTTPPVLDSDGSFFLYSKLTVDKSRWQQGKVFSCSVMHEALHNHYTQKSLSLSPGK
12 | – | – | – | 1.75 | 1.64 | 0.38 | Fc variant F243L R255L D270E P396L (other, UniProt P01857-1 104-330, looked up, domain: Fc) DKTHTCPPCPAPELLGGPSVFLLPPKPKDTLMISLTPEVTCVVVDVSHEEPEVKFNWYVDGVEVHNAKTKPREEQYNSTYRVVSVLTVLHQDWLNGKEYKCKVSNKALPAPIEKTISKAKGQPREPQVYTLPPSRDELTKNQVSLTCLVKGFYPSDIAVEWESNGQPENNYKTTPLVLDSDGSFFLYSKLTVDKSRWQQGNVFSCSVMHEALHNHYTQKSLSLSPGK
13 | – | – | – | 1.89 | 2.46 | 0.58 | Fc variant P247L D270E N421K (other, UniProt P01857-1 104-330, looked up, domain: Fc) DKTHTCPPCPAPELLGGPSVFLFPPKLKDTLMISRTPEVTCVVVDVSHEEPEVKFNWYVDGVEVHNAKTKPREEQYNSTYRVVSVLTVLHQDWLNGKEYKCKVSNKALPAPIEKTISKAKGQPREPQVYTLPPSRDELTKNQVSLTCLVKGFYPSDIAVEWESNGQPENNYKTTPPVLDSDGSFFLYSKLTVDKSRWQQGKVFSCSVMHEALHNHYTQKSLSLSPGK
14 | – | – | – | 1.34 | 1.65 | 0.87 | Fc variant R255L D270E P396L (other, UniProt P01857-1 104-330, looked up, domain: Fc) DKTHTCPPCPAPELLGGPSVFLFPPKPKDTLMISLTPEVTCVVVDVSHEEPEVKFNWYVDGVEVHNAKTKPREEQYNSTYRVVSVLTVLHQDWLNGKEYKCKVSNKALPAPIEKTISKAKGQPREPQVYTLPPSRDELTKNQVSLTCLVKGFYPSDIAVEWESNGQPENNYKTTPLVLDSDGSFFLYSKLTVDKSRWQQGNVFSCSVMHEALHNHYTQKSLSLSPGK
15 | – | – | – | – | – | 0.65 | Fc variant R255L D270E R292G P396L (other, UniProt P01857-1 104-330, looked up, domain: Fc) DKTHTCPPCPAPELLGGPSVFLFPPKPKDTLMISLTPEVTCVVVDVSHEEPEVKFNWYVDGVEVHNAKTKPGEEQYNSTYRVVSVLTVLHQDWLNGKEYKCKVSNKALPAPIEKTISKAKGQPREPQVYTLPPSRDELTKNQVSLTCLVKGFYPSDIAVEWESNGQPENNYKTTPLVLDSDGSFFLYSKLTVDKSRWQQGNVFSCSVMHEALHNHYTQKSLSLSPGK
16 | – | – | – | 1.52 | 1.74 | 0.87 | Fc variant R255L D270E Y300L P396L (other, UniProt P01857-1 104-330, looked up, domain: Fc) DKTHTCPPCPAPELLGGPSVFLFPPKPKDTLMISLTPEVTCVVVDVSHEEPEVKFNWYVDGVEVHNAKTKPREEQYNSTLRVVSVLTVLHQDWLNGKEYKCKVSNKALPAPIEKTISKAKGQPREPQVYTLPPSRDELTKNQVSLTCLVKGFYPSDIAVEWESNGQPENNYKTTPLVLDSDGSFFLYSKLTVDKSRWQQGNVFSCSVMHEALHNHYTQKSLSLSPGK

From US20240131162A1 (MacroGenics, published 2024)
